Data set [1] deals with T1, SRF (serum response factor) (UniProt Q9JM73 Q9JM73:1-504).
T1 sequence: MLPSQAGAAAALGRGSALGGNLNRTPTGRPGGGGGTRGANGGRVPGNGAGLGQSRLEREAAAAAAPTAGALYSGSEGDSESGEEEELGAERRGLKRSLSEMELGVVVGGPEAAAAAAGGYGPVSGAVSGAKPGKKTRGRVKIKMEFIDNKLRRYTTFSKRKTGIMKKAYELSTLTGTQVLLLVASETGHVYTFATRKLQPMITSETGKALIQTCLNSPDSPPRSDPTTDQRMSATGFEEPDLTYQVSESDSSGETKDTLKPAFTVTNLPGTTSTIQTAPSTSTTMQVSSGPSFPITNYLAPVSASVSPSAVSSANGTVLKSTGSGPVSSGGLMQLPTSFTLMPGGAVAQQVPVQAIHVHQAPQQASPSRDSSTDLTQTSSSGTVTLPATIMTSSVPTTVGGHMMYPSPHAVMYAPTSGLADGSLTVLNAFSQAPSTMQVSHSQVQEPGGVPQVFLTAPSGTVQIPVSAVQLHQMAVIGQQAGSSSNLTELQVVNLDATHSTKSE
The data set can be described thus: EMSA; radiolabeled probe; cold WT competition. Background: Mobility shift assays separate free from complexed probe on a gel.

The target in data set [2] is T1, SRF (serum response factor). The data set can be described thus: competition; cold mutant competitor; competition with WT or mutant probe indicates specificity of band.

B1: miR-143/145 enhancer SRF site (CArG) WT (dsDNA)
DNA 1: GGGAGCAGCCTTGCCATATAAGGGCAGG
DNA 2: CCTGCCCTTATATGGCAAGGCTGCTCCC
With B1, the binding result in data set [1] was “binds”.

B2: miR-143/145 enhancer SRF site mutant (dsDNA)
DNA 1: GGGAGCAGCCTTGCTACCGAAGGGCAGG
DNA 2: CCTGCCCTTCGGTAGCAAGGCTGCTCCC
For the molecule B2, in data set [2], the binding result is “no binding”.

Values taken from patent US20120093789, “Methods of Modulating Smooth Muscle Cell Proliferation and Differentiation” (published 2012).
